The results in this text go back to patent US20170158753A1.

Residue numbers refer to the chain shown, from its start. Values joined by “and” are separate entries in the source; they are usually repeats but may differ in a detail not shown here. Equal values may be shown once. Read-outs that look alike come from different tables or passages of the source. Some results are limits rather than exact numbers.

Test [1] addresses EBOV GP[change] (Ebola virus), Q05320. Conditions: remark: other sources report otherwise.
For test [2] the target is unchanged. Conditions: remark: other sources report otherwise. The source holds these as a separate data set.
Test [3] deals with cleaved EBOV GP (GPcl) (Ebola virus (EBOV)), Q05320. The test can be described thus: ELISA on thermolysin cleaved EBOV GP (GPcl), OD650 against nM mAb. Conditions: remark: other sources report otherwise.
In test [4] the target is EBOV GP[change] (Ebola virus), Q05320. The following applies: remark: other sources report otherwise. This is another data set of the same source.
In test [5] the target is BDBV GP[change] (Bundibugyo virus (BDBV)). The experiment in a line: ELISA, GPΔTM coated. (In general: In an ELISA, binding on a coated surface is turned into a signal by an enzyme label.)
Test [6] addresses EBOV GP[change] (Ebola virus) (UniProt Q05320).
Test [7] addresses RESTV GP[change] (Reston virus) (UniProt Q66799).
The target of test [8] is MARV GP[change] (Marburg virus), P35253. The following applies: remark: other sources report otherwise.
The target of test [9] is cleaved EBOV GP (GPcl) (Ebola virus (EBOV)), Q05320. The test can be described thus: ELISA on cathepsin-cleaved EBOV GP at pH 7. The following applies: remark: other sources report otherwise.
Test [10] shares this target. The experiment in a line: ELISA, cleaved EBOV GP coated. The following applies: remark: other sources report otherwise.
The target is the same in test [11]. The experiment in a line: ELISA on cathepsin-cleaved EBOV GP at pH 5.5. The following applies: remark: other sources report otherwise.
For test [12], the target named is MARV GP[change] (Marburg virus) (UniProt P35253).
For test [13], the target named is SUDV GP[change] (Sudan virus) (UniProt Q66814).
Test [14] has as its target EBOV GP[change] (Ebola virus) (UniProt Q05320). The source holds these as a separate data set.

B1: m17C6 (antibody, V domains shown)
VH: EVQLQESGPGLVQPSQSLSITCTVSGFSLTSYGVHWVRQSPGKGLEWLGVIWSGGSTDYNAAFISRLSISKDNSKSQVFFKMNSLQADDTAIYYCARNWFDYDNYYSMDYWGQGTSVTVSS
VL: DIQMTQTTSSLSASLGDRVTISCRASQDISNYLNWYQQKPDGTVKLLIYYTSRLHSGVPSRFSGSGSGTDFSLTISNQEPEDIATYYCQQYSNLPWTFGGGTKLEIKR
One may read the Kd as the concentration at which binding is half-saturated. A higher Kd goes with a looser complex. A word on the EC50: it is the concentration giving half of the maximal effect. A high value points to lower potency in that assay. B1 yielded a Kd in test [1] of 11 nM. Moreover, the EC50 stood at 0.03 µg/mL in [2], 0.6 nM in test [3] and 1 nM in test [4].

B2: m16G8 (antibody, V domains shown)
VH: EVQLQESGPGLVKPGASVKISCKASGYSFTGYYMNWVKQSPEKSLEWIGEINPSTGGTTYNQKFKAKATLTVDKSSSTAYMQLKSLTSEDSAVYYCVRYSHYYGSGSWYFDVWGTGTTVTVSS
VL: DIQMTQSPASLSASVGETVTITCRASENIYSNLAWYQQKQGKSPQLLVNAATNLADGVPSRFSGSGSGTQFSLKINSLQPEDFGSYYCQHFYVTPYMFGSGTKLEIKR
Regarding B2, the EC50 in test [2] is 1.23 µg/mL; in test [3], more than 100 nM; in [4] it was 3.3 nM.

B3: m2E4 (antibody, V domains shown)
VH: B2 VH with G10E
VL: B2 VL with M97T
As for B3, the EC50 in test [5] was 0.69 µg/mL; in [6] it was more than 10 µg/mL; in test [7], more than 10 µg/mL.

B4: m2D8 (antibody, V domains shown)
VH: EVQLQESGGELVRPGTSVKISCKASGYTFTNFWLGWIKERPGHGLEWIGDIYPGGHYTNYNENFKGKATLTADTSSNTAYMQVSSLTSEDSAVYFCFTQYYDMDYWGQGTSVTVSS
VL: not shown
As usually defined, the EC50 (read off the curve) is the concentration that produces a half-maximal response. B4: the EC50 came to 26.2 µg/mL in test [2], 0.0573 µg/mL in test [8] and 0.72 µg/mL in test [10]. Also, the EC50 (read off the curve) in test [9] came to 0.7 µg/mL; in [11], 1 µg/mL.

B5: m21B2 (antibody, V domains shown)
VH: EVQLQESGAELVRPGASVTLSCKTSGYTFTDYEMHWVKQTPVHGLEWIGAIDPETGGTAYNQKFKGKATLTADKSSSTAYMELSRLTSEDSAVYYCTGNYATDYWGQGTSVTVSS
VL: DIVMSQSPSSLAVSAGEKVTMSCKSSQSLFNSRSRKNYLAWYQLKPGQSPKLLIYWASTRESGVPDRFTGSGSGTDFTLTISSVQAEDLAVYYCKQSNYLWTFGGGTKLEIKR
Consider B5, for which the EC50 is more than 10 µg/mL in test [2], 0.0307 µg/mL in test [8], 0.0688 µg/mL in test [12] and more than 10 µg/mL in [13].

B6: m8C4 (antibody, V domains shown)
VH: EVQLQESGPELKKPGETVKISCKASGYTFTTYGMSWVKQAPGKGLKWMGRINTYSGVPTYADEFKGRFAFSLENSASTAYLQINNLKNEDTATYFCARGDGGHWFANWGQGTLVTVSA
VL: DIQMTQSPSSLSASLGGKVTITCKASQDINKNIAWYQHKPGKGPRLLIWYKSALQPGIPSRFSGSGSGRDYSFSISNLEPEDIATYSCLQYDNLPPTFGGGTKLEIKR
Turning to B6, the EC50 is more than 10 µg/mL in test [5]; 0.21 µg/mL in test [2]; 6.7 nM in [14]; 2.6 nM in [4]; 0.26 µg/mL in test [6]; 0.15 µg/mL and 0.06 µg/mL in [13].
